This assay concerns the target wild-type E. coli ClpX (E. coli) (UniProt P0A6H1).
UniProt P0A6H1, sequence (P0A6H1 whole entry): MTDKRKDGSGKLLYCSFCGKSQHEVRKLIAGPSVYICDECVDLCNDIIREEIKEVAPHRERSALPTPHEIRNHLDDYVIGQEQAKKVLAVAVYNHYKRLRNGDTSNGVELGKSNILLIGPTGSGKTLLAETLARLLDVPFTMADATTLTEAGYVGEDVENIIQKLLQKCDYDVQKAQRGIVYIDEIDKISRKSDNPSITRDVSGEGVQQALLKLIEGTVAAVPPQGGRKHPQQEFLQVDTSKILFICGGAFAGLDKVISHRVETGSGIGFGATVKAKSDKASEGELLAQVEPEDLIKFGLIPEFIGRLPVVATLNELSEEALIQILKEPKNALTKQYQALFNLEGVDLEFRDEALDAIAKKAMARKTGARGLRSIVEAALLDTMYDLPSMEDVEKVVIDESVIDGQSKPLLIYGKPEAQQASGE

“wild-type E. coli ClpP with a C-terminal His6 tag (from UniProt P0A6G7 15-207) (enzyme)” showed a rate of decapeptide cleavage by ClpP with ClpX•ATPγS, against ClpP alone of 9 fold.

These data come from publication PMC2885556.
